Measured values from patent US20260028391A1 (HUMABS BIOMED, published 2026).

Tests used:
[1] = target: fusion glycoprotein (F) of RSV A GFP (Tables 41 and 42) (respiratory syncytial virus A); experiment: cell-based or functional assay
[2] = target: fusion glycoprotein (F) of RSV B GFP (Tables 41 and 42) (respiratory syncytial virus B); experiment: cell-based or functional assay
[3] = target: fusion glycoprotein (F) of MPV A GFP (Tables 41 and 43) (metapneumovirus A); experiment: cell-based or functional assay
[4] = target: T1, biot-RSV-F wt (respiratory syncytial virus (RSV)); experiment: BLI (Octet), biotinylated F on SA sensors, mAb 5 µg/ml
[5] = target: T2, RSV F expressed on transfected Expi293F cells (respiratory syncytial virus (RSV)); experiment: flow cytometry, transfected Expi293F cells, fixed and permeabilised
[6] = target: T1, biot-RSV-F wt; experiment: BLI, SA sensor loaded with biot-RSV-F wt, mAb 5 ug/ml, 4 min association, 6 min dissociation
[7] = target: T3, RSV-A F (RSV A); experiment: BLI
T3 construct: also called RSV F A

[8] = target: T4, RSV-B F (RSV B); experiment: BLI
T4 construct: also called RSV F B

[9] = target: RSV A fusion glycoprotein (F), virus of the neutralisation assays of Tables 54 and 57 (RSV A); experiment: cell-based or functional assay
[10] = target: T5, RSV F A, A2 Ref (RSV A, strain A2, UniProt P03420 26-574); experiment: FACS, % binding to RSV F A variants
T5 construct: whole, on cells

[11] = target: T6, RSV F A S443P-K445N (RSV A, strain A2, UniProt P03420 26-574); experiment: FACS, % binding to RSV F A variants
T6 construct: whole, on cells

[12] = target: T7, RSV F A G446E (RSV A, strain A2, UniProt P03420 26-574); experiment: FACS, % binding to RSV F A variants
T7 construct: whole, on cells

[13] = target: T8, RSV F A L203I (RSV A, strain A2, UniProt P03420 26-574); experiment: FACS, % binding to RSV F A variants
T8 construct: whole, on cells

[14] = target: T9, RSV F B, B Ref (RSV B); experiment: FACS, % binding to RSV F B variants
T9 construct: whole, on cells

[15] = target: T10, RSV F B K68N-N201S (RSV B); experiment: FACS, % binding to RSV F B variants
T10 construct: whole, on cells

[16] = target: T11, RSV F B K68N-N208S (RSV B); experiment: FACS, % binding to RSV F B variants
T11 construct: whole, on cells

[17] = target: T12, RSV F B N201S (RSV B); experiment: FACS, % binding to RSV F B variants
T12 construct: whole, on cells

[18] = target: T13, RSV F B N208D (RSV B); experiment: FACS, % binding to RSV F B variants
T13 construct: whole, on cells

[19] = target: T14, RSV F B N208S (RSV B); experiment: FACS, % binding to RSV F B variants
T14 construct: whole, on cells; also called mutant N208S

[20] = target: T15, RSV F B S443P (RSV B); experiment: FACS, % binding to RSV F B variants
T15 construct: whole, on cells; also called mutant S443P

[21] = target: fusion glycoprotein (F) of MPV A1/6621 (metapneumovirus A1/6621); experiment: cell-based or functional assay
[22] = target: DS-Cav1 RSV F (respiratory syncytial virus (RSV); …, UniProt P13843 26-513); experiment: ELISA on RSV-F Ds-Cav1, 1 ug/ml
[23] = target: T16, DS-Cav1 RSV F (respiratory syncytial virus); experiment: ELISA on DS-Cav1 RSV F
T16 construct: also called DC-VCav1

[24] = target: fusion glycoprotein (F) of the RSV used in the GFP-based neutralization assay of Table 23 (respiratory syncytial virus); experiment: cell-based or functional assay
[25] = target: fusion glycoprotein (F) of the MPV (non-D280N) used in the GFP-based neutralization assay of Table 23 (metapneumovirus); experiment: cell-based or functional assay
[26] = target: T17, MPV fusion glycoprotein without the D280N mutation (MPV-F D280) (metapneumovirus); experiment: biolayer interferometry (BLI), rIgG1 with M428L/N434S
T17 construct: also called MPV F Non-D280N; MPV-F wt

[27] = target: T18, MPV fusion glycoprotein with the D280N mutation (MPV-F N280) (metapneumovirus); experiment: as above
T18 construct: also called MPV F D280N; MPV-F D280N

[28] = target: RSV fusion glycoprotein (RSV-F) (respiratory syncytial virus); experiment: as above
[29] = target: T2, RSV F expressed on transfected Expi293F …; experiment: flow cytometry, transfected Expi293F cells, fixed and permeabilised; remark: listed apart in the source
[30] = target: T1, biot-RSV-F wt; experiment: BLI, SA sensor loaded with biot-RSV-F wt, mAb 5 ug/ml, 4 min association, 6 min dissociation; remark: listed apart in the source

B1: MPK190-v1.1-rIgG1m17,1-LS (antibody, V domains shown)
VH: QVQLVESGGGLVKPGGSLTLSCAASGFSISGYGMNWVRQAPGRGLEWVASISASSTYIYYADSMKGRFTISRDNGKTSLYLQMKSLRAEDTAVYYCARAPIEPPYFDLWGRGTLVTVSS
VL: QSVLTQPPSVSGAPGQRVTISCTGSNSNIGAGYDVHWYQHLPGKAPKVLIYGNNNRPSVVPDRFSGSNSGASASLAISGLQAEDEADYFCQSYDRRLSGPIFGGGTKLTVL
notes: also called MPK190-v1.1-rIgG1-LS
[1]
  IC50 (ng/ml), RSV A GFP neutralization: 3.54 ng/mL
[2]
  IC50 (ng/ml), RSV B GFP neutralization: 3.39 ng/mL
[3]
  IC50 (ng/ml), MPV A GFP neutralization: 4.03 ng/mL
[4]
  Kd: < 0.001 nM
[5]
  Binding (FACS) relative to parental mAb MPK190-v1.1: 1
[6]
  Kd: < 0.001 nM

B2: MPK190-v1.3-rIgG1m17,1-LS (antibody, V domains shown)
VH: QVQLVESGGGLVKPGGSLTLSCAASGFSISGYGMNWVRQAPGRGLEWVASISASSTYIYYADSMKGRFTISRDNGKTSLYLQMKSLRAEDTAVYYCARAPIEPPYFDLWGRGTLVTVSS
VL: QSVLTQPPSVSGAPGQRVTISCTGSSSNIGAGYDVHWYQHLPGKAPKVLIYGNTNRPSVVPDRFSGSNSGASASLAISGLQAEDEADYFCQSYDRRLSGPIFGGGTKLTVLG
notes: also called MPK190-v1.3-rIgG1-LS
[1]
  IC50 (ng/ml), RSV A GFP neutralization: 3.18 ng/mL
[2]
  IC50 (ng/ml), RSV B GFP neutralization: 2.38 ng/mL
[3]
  IC50 (ng/ml), MPV A GFP neutralization: 5.99 ng/mL
[4]
  Kd: < 0.001 nM
[5]
  Binding (FACS) relative to parental mAb MPK190-v1.1: 0.9
[6]
  Kd: < 0.001 nM

B3: MPK176-v1.3 (antibody, V domains shown)
VH: QVQLVQSGAEVKKPGASVRVSCKASGYTLTAYGISWVRQAPGQGLEWMGWISPKHGNTHYAQRFQGRVTMTTDTSTSTAYMELRSLRPDDTAVYFCAREGVDIMAVPWYFDYWGQGTLVAVSS
VL: SYVLTQPPSVSVAPGQTARISCGGNNIGSKSVHWYQQKPGQAPVVVVYDDSKRPSGIPERFSGSNSGNTATLTISGVEAGDEADYFCQVWDSATDHWVFGGGTKLTVL
[7]
  Kd: 0.136 nM
[8]
  Kd: 0.0256 nM
[9]
  IC50, neutralization of RSVA: 3.94 ng/mL
[10]
  % binding: 78.1%
[11]
  % binding: 0.036%
[12]
  % binding: 0.017%
[13]
  % binding: 56.1%
[14]
  % binding: 39.9%
[15]
  % binding: 60%
[16]
  % binding: 57.9%
[17]
  % binding: 60.2%
[18]
  % binding: 53.6%
[19]
  % binding: 60.4%
[20]
  % binding: 33.8%

B4: MPH12-v1 (VH C111/C112.2 variant of Tables 18 and 19) (antibody, V domains shown)
VH: QVQLVESGGGLVKPGGSLRLSCVASGFTFSGFYMKWIRQAPGKGLEWVSSISASGSYTNYADSVEGRFTVSRDNAKNSLFLLMSSLRAEDTAVYYCARGDSYSGASASHGEFFHKWGQGTLVTVSS
VL: QSVLTQPPSVSGAPGQRVTISCTGSDSNIGADFDVHWYQQLPGTAPKLLIYGNINRPSGVPDRFSGSRSGTSAFLAITRLQAEDEADYYCQSYDRSLHYVFGAGTKVTVL
[21]
  MPV IC50 (nM), neutralization of MPV A1/6621: 5.87 nM
[22]
  EC50 (read off the curve): ~100 ng/mL

B5: MPH12-v16 (VH-FRGL-S63A/VL-D25S) (antibody, V domains shown)
VH: QVQLVESGGGLVKPGGSLRLSCAASGFTFSGFYMKWIRQAPGKGLEWVSSISASGSYTNYADAVEGRFTISRDNAKNSLYLQMNSLRAEDTAVYYCARGDSYCGASACHGEFFHKWGQGTLVTVSS
VL: QSVLTQPPSVSGAPGQRVTISCTGSSSNIGADFDVHWYQQLPGTAPKLLIYGNINRPSGVPDRFSGSRSGTSAFLAITRLQAEDEADYYCQSYDRSLHYVFGAGTKVTVL
notes: also called MPH12 VH-FRGL-S63A / MPH12 VL-D25S
[23]
  EC50: 15.6 ng/mL
[24]
  RSV IC 50 (ng/mL), GFP-based in vitro neutralization: 50.3 ng/mL
[25]
  MPV IC50 (ng/mL), GFP-based in vitro neutralization: 26.8 ng/mL
[26]
  Kd: 0.038 nM
[27]
  Kd: 0.54 nM
[28]
  Kd: 0.41 nM

B6: MPH12-v28 (VH-FRGL-S63A/VL-S26A) (antibody, V domains shown)
VH: QVQLVESGGGLVKPGGSLRLSCAASGFTFSGFYMKWIRQAPGKGLEWVSSISASGSYTNYADAVEGRFTISRDNAKNSLYLQMNSLRAEDTAVYYCARGDSYCGASACHGEFFHKWGQGTLVTVSS
VL: QSVLTQPPSVSGAPGQRVTISCTGSDANIGADFDVHWYQQLPGTAPKLLIYGNINRPSGVPDRFSGSRSGTSAFLAITRLQAEDEADYYCQSYDRSLHYVFGAGTKVTVL
notes: also called MPH12 VH-FRGL-S63A / MPH12 VL-S26A
[23]
  EC50: 32.2 ng/mL
[24]
  RSV IC 50 (ng/mL), GFP-based in vitro neutralization: 59.4 ng/mL
[25]
  MPV IC50 (ng/mL), GFP-based in vitro neutralization: 26.3 ng/mL
[26]
  Kd: 0.045 nM
[27]
  Kd: 0.74 nM
[28]
  Kd: 0.38 nM

B7: MPH12-v2 (VH C111/C112.2 variant of Tables 18 and 19) (antibody, V domains shown)
VH: QVQLVESGGGLVKPGGSLRLSCVASGFTFSGFYMKWIRQAPGKGLEWVSSISASGSYTNYADSVEGRFTVSRDNAKNSLFLLMSSLRAEDTAVYYCARGDSYAGASAAHGEFFHKWGQGTLVTVSS
VL: QSVLTQPPSVSGAPGQRVTISCTGSDSNIGADFDVHWYQQLPGTAPKLLIYGNINRPSGVPDRFSGSRSGTSAFLAITRLQAEDEADYYCQSYDRSLHYVFGAGTKVTVL
[21]
  MPV IC50 (nM), neutralization of MPV A1/6621: 0.552 nM
[22]
  EC50 (read off the curve): ~100 ng/mL

B8: MPK104-v1.3-rIgG1m17,1-LS (antibody, V domains shown)
VH: QVQLVESGGGLVKPGGSLRLSCAASGFTIDGYGMNWVRQAPGKGLEWVSSISASSNYIYYADSMKGRFTISRDNGKNSLYLQMHSLRVEDTGVYYCARAPLEPPYFDLWGRGTLVTVSS
VL: QSVLTQPPSVSGAPGQRVTISCSGGSSNIGAGYDVHWYQQVPGKGPKVLIYGNTNRPSGVPDRFSGSNFGASASLAITGLQAEDEADYFCQSYDRRLGGPVFGGGTKLTVL
notes: also called MPK104-v1.3-rIgG1-LS
[1]
  IC50 (ng/ml), RSV A GFP neutralization: 2.71 ng/mL
[2]
  IC50 (ng/ml), RSV B GFP neutralization: 6.49 ng/mL
[3]
  IC50 (ng/ml), MPV A GFP neutralization: 5.57 ng/mL
[4]
  Kd: 0.209 nM
[29]
  Binding (FACS) relative to parental mAb MPK104-v1.1: 1.1
[30]
  Kd: 0.0924 nM

B9: MPK104-v1.1-rIgG1m17,1-LS (antibody, V domains shown)
VH: QVQLVESGGGLVKPGGSLRLSCAASGFTIDGYGMNWVRQAPGKGLEWVSSISASSNYIYYADSMKGRFTISRDNGKNSLYLQMHSLRVEDTGVYYCARAPLEPPYFDLWGRGTLVTVSS
VL: QSVLTQPPSVSGAPGQRVTISCSGGSSNIGAGYDVHWYQQVPGKGPKVLIYGNNNRPSGVPDRFSGSNFGASASLAITGLQADDEADYFCQSYDRRLGGPVFGGGTKLTVL
notes: called the parental mAb (v1.1)
[29]
  Binding (FACS) relative to parental mAb MPK104-v1.1: 1
[30]
  Kd: 0.0649 nM
